The assay deals with pigeon ovomucoid (pigeon). Put plainly: BLI; BLItz system; biotinylated POVO; recombinant flagellin. For orientation: Biolayer interferometry detects binding as a change in optical thickness at a sensor tip.

As for “recombinant flagellin of Bacillus cereus HN001 (WR52_08290) (natural protein)”, the Kd (as a rule, the equilibrium constant for the complex coming apart) stood at 3.69 nM.

The values are drawn from article PMC7567440.
